Laboratory results reported in paper PMC2755582 (Journal of molecular biology, 2009).
Values belong to the molecule of their own block, whether it stands above or below them.

Tests used:
[1] = molecular target: Uroplakin Ia (Mus musculus) (UniProt Q9D132); conditions: cited from earlier work
uroplakin IIIa = molecular target: T1, uroplakin IIIa (mouse, UniProt Q9JKX8 19-287); test: cryo-EM structure
T1 sequence (looked up): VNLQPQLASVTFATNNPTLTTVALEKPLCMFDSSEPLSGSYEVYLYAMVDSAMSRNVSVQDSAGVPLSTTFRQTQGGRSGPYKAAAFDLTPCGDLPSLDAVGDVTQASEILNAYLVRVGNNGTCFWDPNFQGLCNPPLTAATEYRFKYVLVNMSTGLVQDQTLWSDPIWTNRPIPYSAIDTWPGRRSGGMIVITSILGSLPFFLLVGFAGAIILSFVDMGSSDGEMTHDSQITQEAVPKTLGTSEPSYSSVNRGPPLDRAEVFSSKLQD

uroplakin Ia = molecular target: T2, uroplakin Ia (mouse, UniProt Q9D132 1-257, high mannose glycan at its single glycosylation site); test: cryo-EM structure
T2 sequence (looked up): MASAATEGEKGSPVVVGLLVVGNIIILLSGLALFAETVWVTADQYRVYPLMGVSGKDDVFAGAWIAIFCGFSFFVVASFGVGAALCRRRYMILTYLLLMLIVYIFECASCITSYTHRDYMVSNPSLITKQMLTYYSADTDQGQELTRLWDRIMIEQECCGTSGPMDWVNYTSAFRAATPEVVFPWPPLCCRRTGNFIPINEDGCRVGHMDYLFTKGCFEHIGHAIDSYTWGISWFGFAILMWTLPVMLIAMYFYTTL

Molecule: FimH (from UniProt P08191)
Kd [1]: 100 nM

binding result (uroplakin IIIa): binds
B1: uroplakin Ib (natural protein, mouse, UniProt Q9Z2C6 1-260, looked up)
chain: MAKDDSTVRCFQGLLIFGHVIVGMCGIALTAECIFFVSDQHSLYPLLEATNNDDIFGAAWIGMFVGICLFCLSVLAIVGIMKSNRKILLAYFIMMFIVYGFEVASCITAATQRDFFTTNLFLKQMLMRYQNNSPPTNDDEWKNNGVTKTWDRLMLQDHCCGVNGPSDWQKYTSAFRVENNDADYPWPRQCCVMDKLKEPLNLDACKLGVPGYYHSQGCYELISGPMDRHAWGVAWFGFAILCWTFWVLLGTMFYWSRIEY

binding result (uroplakin Ia): binds
B2: uroplakin II (natural protein, mouse, UniProt P38575 85-184, looked up)
chain: ELVSVVDSGSGYTVTRLSAYQVTNLTPGTKYYISYRVQKGTSTESSPETPMSTLPRKNMESIGLGMARTGGMVVITVLLSVAMFLLVVGLIVALHWDARK
